{"source": "paper PMC4333402", "about": "(Nucleic Acids Research, 2014)", "proteins": {"B1": {"name": "Pyrococcus furiosus Cmr4 (natural protein, UniProt Q8U1S9 1-295, looked up)", "chain": "MKAYLVGLYTLTPTHPGSGTELGVVDQPIQRERHTGFPVIWGQSLKGVLRSYLKLVEKVDEEKINKIFGPPTEKAHEQAGLISVGDAKILFFPVRSLKGVYAYVTSPLVLNRFKRDLELAGVKNFQTEIPELTDTAIASEEITVDNKVILEEFAILIQKDDKGILESVVKAIEQAFGNEMAEKIKGRIAIIPDDVFRDLVELSTEIVARIRINAETGTVETGGLWYEEYIPSDTLFYSLILVTPRAKDNDMALIKEVLGKINGKYLQIGGNETVGKGFVKVTLKEVTNNGGTHAK"}}, "target": "the molecule itself", "assay": "crystal structure"}
{"protein": "B1", "values": [{"measurement": "binding result", "result": "binds"}]}
